The values that follow come from patent US7700573.

In this data set the target is KOC1 (RNA-immunoprecipitation from NSCLC cells) (Homo sapiens) (UniProt O00425). Put plainly: pulldown.
Chain of KOC1 (RNA-immunoprecipitation from NSCLC cells) (Homo sapiens) (O00425 whole entry): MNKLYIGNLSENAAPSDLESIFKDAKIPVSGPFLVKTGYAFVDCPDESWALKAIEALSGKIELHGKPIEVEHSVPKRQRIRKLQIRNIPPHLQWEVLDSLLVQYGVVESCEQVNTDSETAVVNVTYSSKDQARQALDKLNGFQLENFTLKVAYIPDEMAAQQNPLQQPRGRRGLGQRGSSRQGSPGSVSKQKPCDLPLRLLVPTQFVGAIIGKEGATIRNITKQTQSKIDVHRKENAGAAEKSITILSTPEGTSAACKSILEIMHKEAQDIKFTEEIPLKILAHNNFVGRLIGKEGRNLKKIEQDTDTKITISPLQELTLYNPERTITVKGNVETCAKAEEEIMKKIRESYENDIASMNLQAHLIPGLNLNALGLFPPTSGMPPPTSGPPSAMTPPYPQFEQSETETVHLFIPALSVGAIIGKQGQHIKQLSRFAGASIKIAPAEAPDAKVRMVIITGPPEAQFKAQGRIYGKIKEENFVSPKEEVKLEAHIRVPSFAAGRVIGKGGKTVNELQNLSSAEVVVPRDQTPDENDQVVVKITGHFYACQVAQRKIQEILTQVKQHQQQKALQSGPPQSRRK

Regarding GL mRNA (AJ420489), where the note is “RNA-IP microarray”, the binding signal (fold IP/input, sum of five cell lines) came out at 16.

As for ACTB mRNA (BC053988), the binding signal (fold IP/input, sum of five cell lines) (negative control) was found to be 0.

On to PKP4 mRNA (AI681111), for which, under “RNA-IP microarray”, the binding signal (fold IP/input, sum of five cell lines) worked out at 12.6.

As to CCT2 mRNA (AF026166), the binding signal (fold IP/input, sum of five cell lines) (RNA-IP microarray, association in cell extract) stood at 32.3.

Regarding WINS1 mRNA (AA741459), the binding signal (fold IP/input, sum of five cell lines) (RNA-IP microarray) was 10.9.

On to SLC25A3 mRNA (NM_002635), for which the binding signal (fold IP/input, sum of five cell lines) (RNA-IP microarray) was 21.7.

For the substance PSMB7 mRNA (BM837906), the binding signal (fold IP/input, sum of five cell lines) (RNA-IP microarray) was determined as 16.5.

As for SBP2 mRNA (AF380995), the binding signal (fold IP/input, sum of five cell lines) (RNA-IP microarray) is 24.
